Values of other authors as cited in paper PMC4853784.

Target: V1b receptor (Homo sapiens) (UniProt P47901)
Assay: radioligand

Chain of UniProt P47901 (P47901 whole entry): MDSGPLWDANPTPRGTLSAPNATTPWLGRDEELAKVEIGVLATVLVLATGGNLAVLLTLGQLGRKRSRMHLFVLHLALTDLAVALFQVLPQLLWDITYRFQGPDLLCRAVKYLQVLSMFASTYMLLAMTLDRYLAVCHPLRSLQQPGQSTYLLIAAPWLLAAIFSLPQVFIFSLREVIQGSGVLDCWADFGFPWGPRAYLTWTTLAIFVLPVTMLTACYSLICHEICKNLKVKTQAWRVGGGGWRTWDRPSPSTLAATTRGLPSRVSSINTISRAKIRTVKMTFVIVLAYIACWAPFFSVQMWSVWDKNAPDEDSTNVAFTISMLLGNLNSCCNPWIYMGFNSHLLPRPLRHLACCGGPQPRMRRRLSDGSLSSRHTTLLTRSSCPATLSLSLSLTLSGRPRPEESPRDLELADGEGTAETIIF

Substance: vasopressin (from UniProt P01185)
- Kd: 1.8 nM
